Measurements taken from patent US20170050988A1, “DOTAM DERIVATIVES FOR THERAPEUTIC USE” (priority 2013, published 2017).
≈ marks a conversion by molar mass, not a printed value. Entries after “also recorded” stand apart in the source; their conditions may differ. Starred links: 1 amine or outer side, 2 acyl side, 3 side chain; linkers in the order of their positions; H or OH if unused. Positions of bridges follow the written chain, without caps; N, C: chain ends. Non-standard residues stand in square brackets, D forms with d. Residues, ends and D or L forms follow the SMILES beside them. Chains are numbered I, II in the order given. *: point of attachment. X1 = CN1/C(=C/C=C/C=C/C2=[N+](CCCCCC(=O)NCCOCCOCCNC(=O)CN3CCN(CC(=O)NCCOCCOCCN[*:1])CCN(CC(=O)NCCOCCOCCN[*:3])CCN(CC(=O)NCCOCCOCCN[*:2])CC3)c3ccc4ccccc4c3C2(C)C)C(C)(C)c2c1ccc1ccccc21; X4 = CN1/C(=C/C=C/C=C/C2=[N+](CCCCCC(=O)NCCOCCOCCN*)c3ccc4ccccc4c3C2(C)C)C(C)(C)c2c1ccc1ccccc21; Sta = CC(C)C[C@H](N)[C@@H](O)CC(=O)O; Isovaleryl = CC(C)CC(=O)*

Legend:
in vivo = conditions: male, C57BL/6J, mouse, in vivo
Procedure: (§1) Measurement of In Vivo Half Life of Compounds in Mice
(§2) Male C57 BL/6J mice aged 10 weeks were purchased from Harlan Laboratories (Blackthorn, Bicester, UK). Mice were housed in groups of 6 in individually vented cages, maintained at 21±2° C. on a 12-hour light/dark cycle and with food provided ad libitum. All experimental protocols were performed in compliance with the UK Animals (Scientific Procedures) Act 1986 regulations for the handling and use of laboratory animals (Home Office project license PPL no: 70/7288).
(§3) One hundred nanomoles of each of the compounds were injected into the intra-articular space following induction of anaesthesia by gaseous anaesthetic (2% isofluorane and O2). Planar fluorescence images of the knee joints was captured at the time points indicated by capturing the emission at 700 nm for 1 min after exposure at 630 nm under gaseous anaesthesia (2.5% isofluorane and O2) in a Kodak In Vivo FX Pro (Carestream, Woodbridge, USA). Planar X-ray images were obtained by exposure to X-rays for 20 seconds for co-registration purposes.
(§4) To calculate the half lives of the compounds in the joint, fluorescence images were analysed using the Carestream MI software (version 5.1). Circular regions of interest (ROI) of 25 pixels in diameter were defined to encompass the knee joint, which was defined by co-registration of X-ray images. The mean fluorescence intensity (MFI) of the ROI was obtained. Fluorescence images shown are false coloured using the rainbow spectrum, with purple being the lowest value and red being the highest value, and the range indicated in the figures. […] All statistical analysis was carried out using the Prism Software (Graphpad, La Jolla, USA).
(§5) We further evaluated the binding capacity of the probes to cartilage in vivo using optical imaging. 0.1 μmol of each of the compounds were injected intra-articularly into the knees of mice, and in vivo fluorescent microscopy and X-ray were used to quantify localization and retention. The decay in signal was fitted to a two-phase exponential decay model to describe the rapid clearance of unbound probe from the joint and the slow clearance of bound probe from the cartilage (n=5).

knee joints of mice = test: In vivo half life / retention of Cy5.5 probes in mouse knee joints (optical imaging)
Procedure: as §1, §2, §3, §4, §5

[1] = system: pig articular cartilage explants; test: Ex vivo GAG release model with pig articular cartilage explants; format: cell-based; conditions: explants pre-incubated with 1 μM inhibitor 24 h, then washed
Cathepsin D = target: T1, Cathepsin D (Homo sapiens, UniProt P07339); test: Cathepsin D enzyme assay; format: biochemical; conditions: purified Cathepsin D, pH 4.5, 37° C.; read-out: IC50
T1 construct: purchased Biomol Se-199
Procedure: For quantification of Cathepsin D inhibitory activity, an enzymatic assay was used that measures the turnover of a quenched, fluorescenctly-labeled, Cathepsin D-cleavable, peptide substrate over time.
Specifically, 13 ng of purified Cathepsin D enzyme (Biomol; Cat.No. Se-199) was administered per well of a 96 well plate, substance/inhibitor of interest was added and the mixture incubated for 10 min. at 37° C. Then, the enzymatic reaction was started by addition of fluorescenctly-labeled, Cathepsin D-Substrat ([…] (7-Methoxycoumarin-4-yl)-acetyl-Pro-Leu-Gly-Leu-(3 [2,4-dinitrophenyl]-L-2,3-diaminopropionyl)-Ala-Arg-NH2 (Bachem M-1895). The reaction volume amounts to 30 μl and contains 50 mM acetic acid, 200 mM NaCl and 0.003% Brij 35 and was adjusted to pH 4.5 with acetic acid. By cleavage of the peptide chain, the […] is released and the emission of fluorescence dye is measured using excitation/emission wavelengths ([…]) on a Tecan Spectrafluor Plus—instrument at 37° C. for 10 min. For the determination of the compound dose response, a 10 mM DMSO stock solution was diluted and tested in a ten-point, three-fold dilution series run in duplicate beginning at 30 μM final concentration. Data were analyzed using a four-parameter curve fit with a fixed minimum and maximum experimentally defined as the average positive and negative controls on each plate.

[2] = system: pig articular cartilage explants; test: Ex vivo binding assay with pig articular cartilage explants; conditions: 5 μM probe, 24 h incubation, washed; integrated fluorescence
Procedure: To evaluate the cartilage targeting affinities of these five DOTAM-derived compounds, we performed an ex vivo binding assay of these Cy 5.5-labeled probes with pig articular cartilage explants. In these ex vivo experiments, whole-depth pig articular cartilage blocks were incubated with 5 μM of each probe for 24 h, washed 3 times for 10 min each with PBS buffer at 37° C. to remove non-binding probes, then imaged using fluorescent microscopy. The intensity of the near infrared fluorescent signal from Cy 5.5 presents the relevant amount of these probes remaining in the cartilage.

[3] = Solubility in phosphate buffer; format: physicochemical; conditions: phosphate buffer at pH 7.4
[4] = 100 nmol, First Half Life (h), 100 nmol intra-articular, mouse knee, two phase decay fit of fluorescence, fast half life (t1), loss from the joint space
[5] = 100 nmol, Terminal Half Life (h), 100 nmol intra-articular, mouse knee, two phase decay fit, slower half life (t2, t1/2beta), loss of cartilage-bound compound

T1 sequence (P07339 65-412): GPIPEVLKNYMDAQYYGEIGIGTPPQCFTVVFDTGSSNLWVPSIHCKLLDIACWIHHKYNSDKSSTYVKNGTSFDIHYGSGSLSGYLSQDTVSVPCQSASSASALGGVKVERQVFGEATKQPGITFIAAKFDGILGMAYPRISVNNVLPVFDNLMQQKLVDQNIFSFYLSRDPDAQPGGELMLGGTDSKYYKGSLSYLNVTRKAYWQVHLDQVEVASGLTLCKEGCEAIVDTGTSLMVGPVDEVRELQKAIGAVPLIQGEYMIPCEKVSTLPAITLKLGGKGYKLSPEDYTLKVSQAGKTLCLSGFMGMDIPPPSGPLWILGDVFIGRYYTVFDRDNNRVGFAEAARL

Molecule: CC(=O)N[C@@H](Cc1ccc(O)cc1)C(=O)N[C@@H](CCCNC(=N)N)C(=O)N[C@@H](CC(C)C)C(=O)NCC(=O)N[C@@H](CCCNC(=N)N)C(=O)N[C@@H](Cc1c[nH]c2ccccc12)C(=O)NCCOCCOCCNC(=O)CCCCC[N+]1=C(/C=C/C=C/C=C2/N(C)c3ccc4ccccc4c3C2(C)C)C(C)(C)c2c1ccc1ccccc21 [HHY-258B, AcYRLGRW-Cy5.5] (Ac-YRLGRW-X4)
- half-life (in vivo; First Half Life (h)): 2 h
- half-life (in vivo; Terminal Half Life (h)): 35 h

Molecule: CC(=O)N[C@@H](Cc1c[nH]c2ccccc12)C(=O)N[C@@H](Cc1ccc(O)cc1)C(=O)N[C@@H](CCCNC(=N)N)C(=O)NCC(=O)N[C@@H](CCCNC(=N)N)C(=O)N[C@@H](CC(C)C)C(=O)NCCOCCOCCNC(=O)CCCCC[N+]1=C(/C=C/C=C/C=C2/N(C)c3ccc4ccccc4c3C2(C)C)C(C)(C)c2c1ccc1ccccc21 [HHY-259B, AcWYRGRL-Cy 5.5] (Ac-WYRGRL-X4)
- half-life (in vivo; [4]): 2.3 h
- half-life (in vivo; [5]): 205 h

Molecule: CC(=O)N[C@@H](Cc1c[nH]c2ccccc12)C(=O)N[C@@H](Cc1ccc(O)cc1)C(=O)N[C@@H](CCCNC(=N)N)C(=O)NCC(=O)N[C@@H](CCCNC(=N)N)C(=O)N[C@@H](CC(C)C)C(=O)NCCOCCOCCNC(=O)CN1CCN(CC(=O)NCCOCCOCCNC(=O)CCCCC[N+]2=C(/C=C/C=C/C=C3/N(C)c4ccc5ccccc5c4C3(C)C)C(C)(C)c3c2ccc2ccccc32)CCN(CC(=O)NCCOCCOCCNC(=O)[C@H](CC(C)C)NC(=O)[C@H](CCCNC(=N)N)NC(=O)CNC(=O)[C@H](CCCNC(=N)N)NC(=O)[C@H](Cc2ccc(O)cc2)NC(=O)[C@H](Cc2c[nH]c3ccccc23)NC(C)=O)CCN(CC(=O)NCCOCCOCCNC(=O)[C@H](CC(C)C)NC(=O)[C@H](CCCNC(=N)N)NC(=O)CNC(=O)[C@H](CCCNC(=N)N)NC(=O)[C@H](Cc2ccc(O)cc2)NC(=O)[C@H](Cc2c[nH]c3ccccc23)NC(C)=O)CC1 [HHY-290, (AcWYRGRL)3-DOTA-Cy5.5] (I: Ac-WYRGRL / II: Ac-WYRGRL / III: Ac-WYRGRL; linker I:C-II:C-III:C via X1)
- retained initial signal (knee joints of mice; 8 days after intra-articular injection, 0.1 μmol, mouse knee): 40%
- half-life (in vivo; [4]): 8.9 h
- half-life (in vivo; [5]): 1280 h

Molecule: CC(=O)N[C@@H](Cc1ccc(O)cc1)C(=O)N[C@@H](CCCNC(=N)N)C(=O)N[C@@H](CC(C)C)C(=O)NCC(=O)N[C@@H](CCCNC(=N)N)C(=O)N[C@@H](Cc1c[nH]c2ccccc12)C(=O)NCCOCCOCCNC(=O)CN1CCN(CC(=O)NCCOCCOCCNC(=O)CCCCC[N+]2=C(/C=C/C=C/C=C3/N(C)c4ccc5ccccc5c4C3(C)C)C(C)(C)c3c2ccc2ccccc32)CCN(CC(=O)NCCOCCOCCNC(=O)[C@H](Cc2c[nH]c3ccccc23)NC(=O)[C@H](CCCNC(=N)N)NC(=O)CNC(=O)[C@H](CC(C)C)NC(=O)[C@H](CCCNC(=N)N)NC(=O)[C@H](Cc2ccc(O)cc2)NC(C)=O)CCN(CC(=O)NCCOCCOCCNC(=O)[C@H](Cc2c[nH]c3ccccc23)NC(=O)[C@H](CCCNC(=N)N)NC(=O)CNC(=O)[C@H](CC(C)C)NC(=O)[C@H](CCCNC(=N)N)NC(=O)[C@H](Cc2ccc(O)cc2)NC(C)=O)CC1 [HHY-293, (AcYRLGRW)3-DOTA-Cy5.5] (I: Ac-YRLGRW / II: Ac-YRLGRW / III: Ac-YRLGRW; linker I:C-II:C-III:C via X1)
- Terminal Half Life (knee joints of mice; male, C57BL/6J, mouse, in vivo): 18.75 h
- half-life (in vivo; First Half Life (h)): 3 h
- half-life (in vivo; Terminal Half Life (h)): 19 h

Molecule: CC(=O)N[C@@H](Cc1c[nH]c2ccccc12)C(=O)N[C@@H](Cc1ccc(O)cc1)C(=O)N[C@@H](CCCNC(=N)N)C(=O)NCC(=O)N[C@@H](CCCNC(=N)N)C(=O)N[C@@H](CC(C)C)C(=O)NCCOCCOCCNC(=O)CN1CCN(CC(=O)NCCOCCOCCNC(=O)C[C@H](O)[C@H](CC(C)C)NC(=O)[C@H](C)NC(=O)C[C@H](O)[C@H](CC(C)C)NC(=O)[C@@H](NC(=O)[C@@H](NC(=O)CC(C)C)C(C)C)C(C)C)CCN(CC(=O)NCCOCCOCCNC(=O)[C@H](CC(C)C)NC(=O)[C@H](CCCNC(=N)N)NC(=O)CNC(=O)[C@H](CCCNC(=N)N)NC(=O)[C@H](Cc2ccc(O)cc2)NC(=O)[C@H](Cc2c[nH]c3ccccc23)NC(C)=O)CCN(CC(=O)NCCOCCOCCNC(=O)[C@H](CC(C)C)NC(=O)[C@H](CCCNC(=N)N)NC(=O)CNC(=O)[C@H](CCCNC(=N)N)NC(=O)[C@H](Cc2ccc(O)cc2)NC(=O)[C@H](Cc2c[nH]c3ccccc23)NC(C)=O)CC1 [HHY-299, (AcWYRGRL)3-DOTA-Pepstatin A]
- inhibition of GAG release ([1]; 24 hours after stimulation at pH 5.0): 34%
- inhibition of GAG release ([1]; 48 hours after stimulation at pH 5.0): 18%
- IC50 (Cathepsin D): 3.3 nM

Molecule: CC(=O)N[C@@H](Cc1c[nH]c2ccccc12)C(=O)N[C@@H](Cc1ccc(O)cc1)C(=O)N[C@@H](CCCNC(=N)N)C(=O)NCC(=O)N[C@@H](CCCNC(=N)N)C(=O)N[C@@H](CC(C)C)C(=O)NCCOCCOCCNC(=O)CN1CCN(CC(=O)NCCOCCOCCN)CCN(CC(=O)NCCOCCOCCN)CCN(CC(=O)NCCOCCOCCNC(=O)CCCCC[N+]2=C(/C=C/C=C/C=C3/N(C)c4ccc5ccccc5c4C3(C)C)C(C)(C)c3c2ccc2ccccc32)CC1 [HHY-312, AcWYRGRL-DOTA-Cy5.5]
- fold mean increase of probe accumulation in cartilage vs non-targeted HHY-306 [2]: 11.2 fold
- fold mean increase of probe accumulation in cartilage vs scrambled HHY-322 [2]: 6.0 fold
- Terminal Half Life (knee joints of mice; male, C57BL/6J, mouse, in vivo): 210.7 h
- half-life (in vivo; First Half Life (h)): 4 h
- half-life (in vivo; Terminal Half Life (h)): 210 h

Molecule: CC(=O)N[C@@H](Cc1ccc(O)cc1)C(=O)N[C@@H](CCCNC(=N)N)C(=O)N[C@@H](CC(C)C)C(=O)NCC(=O)N[C@@H](CCCNC(=N)N)C(=O)N[C@@H](Cc1c[nH]c2ccccc12)C(=O)NCCOCCOCCNC(=O)CN1CCN(CC(=O)NCCOCCOCN)CCN(CC(=O)NCCOCCOCCN)CCN(CC(=O)NCCOCCOCCNC(=O)CCCCCN2c3ccc4ccccc4c3C(C)(C)C2/C=C/C=C/C=C2/N(C)c3ccc4ccccc4c3C2(C)C)CC1 (some centres unmarked) [HHY-322, AcYRLGRW-DOTA-Cy5.5]
- Terminal Half Life (knee joints of mice; male, C57BL/6J, mouse, in vivo): 12.5 h
- half-life (in vivo; First Half Life (h)): 1.67 h
- half-life (in vivo; Terminal Half Life (h)): 13 h

Molecule: CC(C)CC(=O)N[C@H](C(=O)N[C@H](C(=O)N[C@@H](CC(C)C)[C@@H](O)CC(=O)N[C@@H](C)C(=O)N[C@@H](CC(C)C)[C@@H](O)CC(=O)NCCOCCOCCNC(=O)CN1CCN(CC(=O)NCCOCCOCCN)CCN(CC(=O)NCCOCCOCCN)CCN(CC(=O)NCCOCCOCCN)CC1)C(C)C)C(C)C [HHY-325]
- IC50 (Cathepsin D): 2.9 nM

Molecule: CC(C)CC(=O)N[C@H](C(=O)N[C@H](C(=O)N[C@@H](CC(C)C)[C@@H](O)CC(=O)N[C@@H](C)C(=O)N[C@@H](CC(C)C)[C@@H](O)CC(=O)O)C(C)C)C(C)C [Pepstatin A, reference compound] (Isovaleryl-VV[Sta]A[Sta]-OH)
- effect on acid-stimulated GAG release / degradation (FIG. 3) ([1]; pH 5.0): no effect at all; also recorded: not effective
- solubility [3]: 820 µg/mL (≈ 1200 µM)

Molecule: AcNH-DOTA-Cy 5.5 [HHY-306]
- First Half Life (knee joints of mice; mouse, in vivo): 0.5 h
- Terminal Half Life (knee joints of mice; mouse, in vivo): 9.8 h
